Source: PMC13507320, “Synergistic effect of PIP2 and PIP3 on membrane-induced phase separation of integrin complexes” (Biophysical Journal, 2025)

What was measured:
[1] = biological target: T1, Atto643-labeled his6-β1 integrin cytoplasmic tail peptide (UniProt P05556 752-798, Atto643 label (position not given)); assay: FRAP of the tethered partner on supported lipid bilayers (slowdown of diffusion); his6-β1 tails tethered to DGS-NTA-Ni on 5% PIP3 supported lipid bilayer; 1 μM kindlin or 1 μM talin, 30-min incubation; HEPES buffer pH 7.4, 150 mM KCl, 2.5 μM ZnCl2; t1/2_fast against β1 tails alone; settings: both partners purified
T1 construct: integrin β1 cytoplasmic tail; Tethered by its his6 tag to DGS-NTA-Ni lipids of the supported lipid bilayer; also called β1 tails; his6-tagged integrin β1 tails; source: synthetic peptide (synthesized and purified by the MPIB Core Facility)
T1 peptide (looked up): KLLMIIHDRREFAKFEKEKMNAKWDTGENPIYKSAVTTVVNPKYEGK

[2] = biological target: T1, Atto643-labeled his6-β1 integrin …; assay: FRAP of the tethered partner on supported lipid bilayers (slowdown of diffusion); his6-β1 tails tethered to DGS-NTA-Ni on 5% PIP2 supported lipid bilayer; 1 μM kindlin or 1 μM talin, 30-min incubation; HEPES buffer pH 7.4, 150 mM KCl, 2.5 μM ZnCl2; t1/2_fast against β1 tails alone; settings: both partners purified

- fold slowdown of β1 tail diffusion against β1 tails alone [1]: 3.3 times
- fold slowdown of β1 tail diffusion against β1 tails alone [2]: 2.6 times
B1: Kindlin-2 (natural protein, UniProt Q96AC1 1-680, looked up)
chain: MALDGIRMPDGCYADGTWELSVHVTDLNRDVTLRVTGEVHIGGVMLKLVEKLDVKKDWSDHALWWEKKRTWLLKTHWTLDKYGIQADAKLQFTPQHKLLRLQLPNMKYVKVKVNFSDRVFKAVSDICKTFNIRHPEELSLLKKPRDPTKKKKKKLDDQSEDEALELEGPLITPGSGSIYSSPGLYSKTMTPTYDAHDGSPLSPTSAWFGDSALSEGNPGILAVSQPITSPEILAKMFKPQALLDKAKINQGWLDSSRSLMEQDVKENEALLLRFKYYSFFDLNPKYDAIRINQLYEQAKWAILLEEIECTEEEMMMFAALQYHINKLSIMTSENHLNNSDKEVDEVDAALSDLEITLEGGKTSTILGDITSIPELADYIKVFKPKKLTLKGYKQYWCTFKDTSISCYKSKEESSGTPAHQMNLRGCEVTPDVNISGQKFNIKLLIPVAEGMNEIWLRCDNEKQYAHWMAACRLASKGKTMADSSYNLEVQNILSFLKMQHLNPDPQLIPEQITTDITPECLVSPRYLKKYKNKQITARILEAHQNVAQMSLIEAKMRFIQAWQSLPEFGITHFIARFQGGKKEELIGIAYNRLIRMDASTGDAIKTWRFSNMKQWNVNWEIKMVTVEFADEVRLSFICTEVDCKVVHEFIGGYIFLSTRAKDQNESLDEEMFYKLTSGWV
notes: Kindlin-2; the species may be mouse there; source: E. coli (DE3) Rosetta 2, purified (Ni-NTA IMAC, SenP2 digest, size-exclusion chromatography); not shown: His-SUMO, N-terminal, cleaved
